The record followed here is the DeepSol protein solubility set.

This series can be described thus: soluble on expression in E. coli; label from the status in PepcDB or PDB records.
Regarding “MSLTPLPYECQKCVLQFFEANRRFKLVERCDSLKAADKAAPLHIYKLYMNPRVIRINRHRYTLGLLRHLPKDHVYYSPYINNVNLDGGAAYDMDQYGLKDPRCNEVLSPGDLKVESKEKINNMEDMTMEMLQFAMRDFIRPQGRMQVQQREDPESSSEDDEDEAEDLPAEGSDDEDDDPQEAQIRRILGDAYLPRARYSSSESEASESEDEPDIDPAVTDQLEAYTNPYSWREENEPAPYRFGIRFQRMNLDFRRDRETFHGIIEYLDYNKKMYDAMKYITEKLFGKRAHPIVIKTLELGDAGGVYRLPENFKVKVSNMRFGTEFGLLWDGLNSIFHESTLPFKSLHMPLEHDHPVIHATQRLVIGTEKMFGENFAWIPFLLKLPQKNVYMLHSPLFHHDYVQLIDNWIETPKSIGTCFTFGVKQYHATQSTLNLLGDHPMVVSKRMEGVDCTEFPHCFNIPLTYESELNVYGKKRTENLDPLEFMPHVSWCLVFEVMPIGSALPLED”, the “soluble on expression in E. coli” value is recorded as “not soluble”.

Turning to “MSLTQMPNVHDAEPIPEAARAEIDRLLLSGDLFRYTAPQDAPVALLEREFAALLGTKYALAVSSCSAALFLSLKALDLPRDARVLIPGFTFAAVPSSVVHADCVPVLCEVGENYRIDMADFKARLDDVQAVIVSHMRGHTSDMDAILSLCAARDIPVVEDAAHSLGTLWHGEKIGTLGRVGCFSFQSYKMVNAGEGGILVTDDADLVARAVIMSGAYEHNWAKHVDGDDPALSEAFARWQNKLPLYNLRLSNLSAAVIRPQLPLLAERVRRGLENHDYVADKLNSSPVLSVPAPLVAETRAPDSIQFNLVGLSDDEVTRFAEAAAARGIKVQIFGKSADNARAFWNWQFLPGGAPELPRTRDMLMRACDVRLPVRLTRDELDLIANALLAAAAEVQGPLRVYGTEGHHHHHH”, the “soluble on expression in E. coli” value was “soluble”.

Consider “MSLTSEIVNSAWKVIPMFESRSIPLTVDFYTKTLGFELGSVKPEDNESELYFCSLAIGKKADANFYFSKVTPETFKSSHAMIGLGTRQLDDYYVYLKGKIEVEFSEDIEDKPWGFRQFTIKDTDGNSLTFFKFLEGGNPGDEGHHHHHH”, for which the “soluble on expression in E. coli” value is “soluble”.

With “MSLTSRVSGVISTDEIIVILSVFVRYDVEQPSKLDRVRADYNVHYWSQGFFGIDDQGEVYVSPRKDKAHQTQLSSIVKQLEARDLNLPVLVRFPQILHQRVHNICDAFNQAIEEYDYPNKYLLVYPIKVNQQKEVVDEILASQAELEHKQLGLEAGSKPELLAVLAMAQQASSVIVCNGYKDREYIRLALIGEKLGHKVFIVLEKLSELDLVLKEAKSLGVKPRLGLRIRLASQGAGKWQSSGGEKSKFGLAASQVLTVINRLKAENQLEALQLVHFHLGSQMANIRDVRNGVNEAVRFYCELRELGAHIDFFDVGGGLAVDYDGTRSQSSNSMNYGLHEYARNIVSTVSDVCNLYGQPRPVIISESGRSITAHHAVLITNVIGTEAYSPEEIPAPGADAPMLLKNMWRGFEEVQHGTDDRALIEIYNDTQSDLSEAHSQFATGVLNLEHRAWAEQLSLRIYHELRQKMSNKNRFHRPILDELQERLADKFFVNFSLFQSLPDAWGIDQVFPVLPLSGLEEMNDRRAVMLDITCDSDGAVEQYVEGQGIESTLPVPAWTSDKPYLMGFFLVGAYQEILGDMHNLFGDTHSAVVNINDNGESEIAFINEGDTVEDMMRYVHIDVDKIRTNYRQLVSQRVAKEEQETVLAELELGLSGYTYLEDFEGHHHHHH”, the “soluble on expression in E. coli” value is “soluble”.

As to “MSLTTIKTSNLGFPRIDLNREWKKALEAYWKGSTDKDTFLKQIDELFLSAVKTQIDQQIDVVPVSDFTQYDHVLDTAVSFNWIPKRFRHLTDATDTYFAIARGIKDAVSSEMTKWFNTNYHYIVPEYDESIEFRLTRNKQLEDYRRIKQEYGVETKPVIVGPYTFVTLAKGYEPSEAKAIQKRLVPLYVQLLKELEEEGVKWVQIDEPALVTASSEDVRGAKELFESITSELSSLNVLLQTYFDSVDAYEELISYPVQGIGLDFVHDKGRNLEQLKTHGFPTDKVLAAGVIDGRNIWKADLEESLDAVLDVLSIAKVDELWIQPSSSLLDVPVAKHPDEHLEKDLLNGLSYAKEKLAELTALKEGLVSGKAAISEEIQQAKADIQALKQFATGANSEQKKELEQLTDKDFKRPIPFEERLALQNESLGLPLLPTTTIGSFPQSAEVRRARQKWRKAEWSDEQYQNFINAETKRWIDIQEELELDVLVHGEFERTDMVEYFGEKLAGFAFTKYAWVQSYGSRCVRPPVIYGDVEFIEPMTVKDTVYAQSLTSKHVKGMLTGPVTILNWSFPRNDISRKEIAFQIGLALRKEVKALEDAGIQIIQVDEPALREGLPLKTRDWDEYLTWAAEAFRLTTSSVKNETQIHTHMCYSNFEDIVDTINDLDADVITIEHSRSHGGFLDYLKNHPYLKGLGLGVYDIHSPRVPSTEEMYNIIVDALAVCPTDRFWVNPDCGLKTRQQEETVAALKNMVEAAKQARAQQTQLVEGGSHHHHHH”, the “soluble on expression in E. coli” value was “soluble”.

As for “MSLTTPLYPIILAGGSGTRLWPLSRQNFPKQFLKLNGELSLIQQTMKRAMGLPGNQTIIVSNDAHYFICQDQLQDFNAQTTYLLEPCARNTAPAIACAAHYLANTVGKDAVMLVLPSDHWIADDEIWLAAMLEGGQFASENNAIVTFGIKPDSPKTGYGYIEAGTTLSSDIKQVLSFREKPDAHTAAQFVSKGNYFWNSGMFICRAGVYLEELEQFETDIYQFSQQALTLAQHHHDFLRLDLDCFSQCKEESIDYAIMEKTDKAVVIPISIQWSDLGCWTAVADANKQDEQGNTLIGNVIAQDSHNCLINSEELLVTTVGIQDQIIVATSDAVLVADKRYSQQVKDLVHSLRKDHPHLTQDHQRVPRPWGYYEVLAEGTSFKVKRLMVKPGAKLSLQTHQHRAEHWVIVGGEAEVVNGNNTFRLSKNQSTYIPKNALHRLSNPHNEPLYVIEVQSGSYLGEDDIKRFDDIYLRKEVEEGHHHHHH”, the “soluble on expression in E. coli” value is given as “soluble”.

In the case of “MSLTTPTMIAAVVEEANGPFVLRKLARPQPAPGQVLVQIEASGTNPLDAKIRAGEAPHAQQPLPAILGMDLAGTVVAVGPEVDSFRVGDAVFGLTGGVGGLQGTHAQFAAVDARLLASKPAALTMRQASVLPLVFITAWEGLVDRAQVQDGQTVLIQGGGGGVGHVAIQIALARGARVFATARGSDLEYVRDLGATPIDASREPEDYAAEHTAGQGFDLVYDTLGGPVLDASFSAVKRFGHVVSCLGWGTHKLAPLSFKQATYSGVFTLHTLLANEGLAHFGEMLREADALVQTGKLAPRLDPRTFSIAEIGSAYDAVLGRNDVPRQRGKIAITVEPQFNLHEQREGHHHHHH”, the “soluble on expression in E. coli” value is “soluble”.

Consider “MSLTTRIGFLLFPGFPMACLTSIIEPLRAANEISMSDSFAWRLVSELPRKVVSSAGITFEPDASLETVSALDYLVLLSAPVARFENPRTASLLRRIERHGTVLGAISGGVFPLVRSGVVRDERLSVHWCYEAAFAAEFPEIQRSNEVIEISPRLLTASGAAAAFDLALSLIEAALGANVANEVACWFQHPIMRKAGVKQALPIHQAADAEGEMSPLVARAIEIFAENLTTPASIAAIAERLHITPRHLERCFKQATGQNPTGYFRHLRMQAARQIVMYTNDSIAEVATAVGYANAKPLVRHYRDTFGLTPQQDRKRINLYRVEGNEGHHHHHH”, for which the “soluble on expression in E. coli” value is given as “not soluble”.

For the sequence “MSLTVRQLASLTRGAVRTLATDGAVAVLPIGAVEQHGDHLPLGTDFLLVEAVCDRAMQQLEDDRTTWVRVPTMTFGHSPHHLFAAAVSLQAGTLTDVLADVLDSLAQTGFRRIVIVNGHGGNDELVRLAVKAHSLHAEGTAAACSYWTLTAQTTAEAAATERPDRTPGHAGWFETSLMLAVHPELVADDRPFTPSDPPPLFNRSPAPGLTVERHGEWPRVGGTTDDAREASAETGRLLLGRRVAGLVAALQSLDRATATPPAASVPSTDRERGPQAEGHHHHHH”, the “soluble on expression in E. coli” value is recorded as “not soluble”.

As for “MSLVDTAKVLILDDQAVSRSILSKIVRNLGRGIKTCEFSSPTEALLWAQDNTADLLLVDYEMPGMNGLCFINEITRLPQYQTVPTIMITIKQDVEIRYAALDAGVTDFLTKPVDMHECMARCKNLITLRQQRLTLEDEGHHHHHH”, the “soluble on expression in E. coli” value is “soluble”.

For the sequence “MSLVEAISLWNEGVLAADKKDWKGALDAFSAVQDPHSRICFNIGCMYTILKNMTEAEKAFTRSINRDKHLAVAYFQRGMLYYQTEKYDLAIKDLKEALIQLRGNQLIDYKILGLQFKLFACEVLYNIAFMYAKKEEWKKAEEQLALATSMKSEPRHSKIDKAMECVWKQKLYEPVVIPVGKLFRPNERQVAQLAKKDYLGKATVVASVVDQDSFSGFAPLQPQAAEPPPRPKTPEIFRALEGEAHRVLFGFVPETKEELQVMPGNIVFVLKKGNDNWATVMFNGQKGLVPCNYLEPVELRIHPQQQPQEESSPQSDIPAPPSSKAPGRPQLSPGQKQKEEPKEVKLSVPMPYTLKVHYKYTVVMKTQPGLPYSQVRDMVSKKLELRLEHTKLSYRPRDSNELVPLSEDSMKDAWGQVKNYCLTLWCENTVGDQGFPDEPKESEKADANNQTTEPQLKKGSQVEALFSYEATQPEDLEFQEGDIILVLSKVNEEWLEGECKGKVGIFPKVFVEDCATTDLESTRREV”, the “soluble on expression in E. coli” value is listed as “soluble”.

In the case of “MSLVERVILIVLDSVGAGEMPDADKYGDKGSDTIGNISKAVGGLKLPDMVKMGLGNISGIKGVDKVQYPIGAFGKLKEMSKGKDTVTGHWEMSGVILEEPLNTYPNGFPKDIIDEFEKKIGRKVIGNKVASGTEIIKELGDEHIKTGCPIVYTSADSVFQVAAHEEIIPLDELYKICKVAREMLVDDRTVGRVIARPFVGKNSNYTRTSNRRDFALDPFNKTMLEYIKENKSNVMCVGKIEDIFNKKGVTEAVHIKNNMDGVDKTLEYMKTDKKGLIFTNLVDFDMLYGHRNDPKGYAKALEEFDGRINEIKTNMKDYDVLMITADHGCDPTTESTDHSREYIPFIAYGKDIKGGADIKIRDSFSDIGKTILDLLQVENNLVGKSFKDIIMKEGHHHHHH”, the “soluble on expression in E. coli” value is on record as “not soluble”.

“MSLVEVYLNSSSMIPIDRYYEYDIYDLVIEAYKNFEGEYDVNSIDLIVVANAYSQKLNNASLIAPKIAEKIGKPNVPSIKVDNADASGGAALLTAYSLIKSNMVNSVLIVGVEKQSDYPSKYLYDAISTNLDDYMFYNGISSHSVAALLMRQYMKRYGVDRNYFANWAIKMHKNATENPFAYLRFQVDLNTVINSQIISDPVRLFDVGARADGAAILLLSNNKTESAVKINKILSAQARYDFSPSLPSVRMLRDKLELKFSERTGIDIHDSYSIMAALMLEEAGIFESGKSLHNLDSVNVNLGGGLKARGHVGGASAIYQLAEAHMQLIGSFKGKKASVDNYIVISSDDLGMVSYGINLSREGHHHHHH”: the “soluble on expression in E. coli” value is “not soluble”.

As to “MSLVGDVYLGVGSASSEYWAAYIEGAKAVASSLGKDVNVIPSEFDGQKLLEQFGAVFAAGCEDCVVTVDPASNAFTKAMIERADTAGAKYVNLWNRPDEIHPWDTVPNTWIANISFDGVDSGYQNGMALCNALGGKGNIVALNGIPDNPPAKQRIAGLHKALQECPGLKLLDTQVGNWDQTQGQSITRAWLAKYGDELNGIFSANDGMALGAVAALREKGLVGKILVTGSDGSSDVIKLIEKGEMLSTMHIDGYVQGAYAVALAAAAVKGDIKMDELKQDQRDFFLSQTLVTKDNAASVLNSKEGHHHHHH”, the “soluble on expression in E. coli” value was “not soluble”.

Take “MSLVINAPFKVIASKVTAEVLKSVNSKLGSYSTNYATSSEARATNVAVATRSIDGKVVMPGETFSFNEVVGERTRARGYKEAGVIVNQKLESGFGGGVCQVSSTLYNALLRSNIKMTERVHHTFPSSYVPTGLDATVDWGNIDLKFKNTFKYPIYIQGYTGGREVGFNIYSNSELAREGHHHHHH”: the “soluble on expression in E. coli” value is “not soluble”.
